Measured values published in US20050037961A1 (BAYLOR COLLEGE OF MEDICINE, published 2005).

T1: endogenous SRF (αMHC-CRP2 mouse heart nuclear extract) (mouse, UniProt Q9JM73 1-504)
T1 sequence (looked up): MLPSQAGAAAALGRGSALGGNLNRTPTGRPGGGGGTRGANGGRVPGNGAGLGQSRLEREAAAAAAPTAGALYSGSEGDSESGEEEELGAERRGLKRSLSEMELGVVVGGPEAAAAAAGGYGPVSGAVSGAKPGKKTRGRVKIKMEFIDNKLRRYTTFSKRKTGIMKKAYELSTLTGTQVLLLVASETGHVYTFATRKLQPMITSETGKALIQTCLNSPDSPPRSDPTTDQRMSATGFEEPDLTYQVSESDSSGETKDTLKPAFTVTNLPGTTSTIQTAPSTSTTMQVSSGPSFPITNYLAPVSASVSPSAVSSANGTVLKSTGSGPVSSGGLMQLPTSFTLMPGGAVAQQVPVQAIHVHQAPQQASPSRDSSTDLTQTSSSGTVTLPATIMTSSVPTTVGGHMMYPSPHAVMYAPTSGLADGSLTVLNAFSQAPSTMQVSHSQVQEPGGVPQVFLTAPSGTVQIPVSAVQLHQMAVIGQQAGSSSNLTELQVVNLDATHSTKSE

T2: GST-SRF (human, UniProt P11831 1-508)
T2 construct: also called GST-SRF fusion protein; not shown: glutathione S-transferase encoded by vector pGEX-2T
T2 sequence (looked up): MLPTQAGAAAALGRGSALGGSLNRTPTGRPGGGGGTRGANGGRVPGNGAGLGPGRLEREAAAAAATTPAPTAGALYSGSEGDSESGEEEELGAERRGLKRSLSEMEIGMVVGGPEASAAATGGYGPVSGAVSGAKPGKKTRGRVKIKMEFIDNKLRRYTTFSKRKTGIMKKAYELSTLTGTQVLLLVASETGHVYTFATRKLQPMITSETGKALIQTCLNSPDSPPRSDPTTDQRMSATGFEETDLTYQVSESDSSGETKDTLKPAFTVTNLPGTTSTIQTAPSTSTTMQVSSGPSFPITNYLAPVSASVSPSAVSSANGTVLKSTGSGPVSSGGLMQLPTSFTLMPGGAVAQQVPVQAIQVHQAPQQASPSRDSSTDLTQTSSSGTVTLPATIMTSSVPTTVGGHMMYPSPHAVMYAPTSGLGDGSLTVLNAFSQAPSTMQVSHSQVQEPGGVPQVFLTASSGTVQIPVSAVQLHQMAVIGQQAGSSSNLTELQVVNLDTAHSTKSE

B1: Id1, endogenous cardiac bHLH transcription factor (other, mouse, UniProt P20067 1-168, looked up)
chain: MKVASGSAAAAAGPSCSLKAGRTAGEVVLGLSEQSVAISRCAGTRLPALLDEQQVNVLLYDMNGCYSRLKELVPTLPQNRKVSKVEILQHVIDYIRDLQLELNSESEVGTTGGRGLPVRAPLSTLNGEISALAAEVRSESEYYIILQWETEATGGGCPPSLLFRRIAI
B2: CRP2ZF2+ZF3 (aa 35-145) (other, rat, UniProt Q62908 35-145, looked up, not shown: small tags and cut ends)
chain: FLCMVCRKNLDSTTVAIHDEEIYCKSCYGKKYGPKGYGYGQGAGTLNMDRGERLGIKPESAQPHRPTTNPNTSKFAQKYGGAEKCSRCGDSVYAAEKIIGAGKPWHKNCFR
notes: range 35-145; also called C2ZF2+ZF3
B3: FLAG-tagged rat CRP2 (αMHC-CRP2 transgene) (other, UniProt Q62908 1-193, looked up, not shown: small tags and cut ends)
chain: MPVWGGGNKCGACGRTVYHAEEVQCDGRTFHRCCFLCMVCRKNLDSTTVAIHDEEIYCKSCYGKKYGPKGYGYGQGAGTLNMDRGERLGIKPESAQPHRPTTNPNTSKFAQKYGGAEKCSRCGDSVYAAEKIIGAGKPWHKNCFRCAKCGKSLESTTLTEKEGEIYCKGCYAKNFGPKGFGYGQGAGALVHAQ
notes: Expressed in cardiomyocytes of transgenic mice and assayed in nuclear and cytoplasmic heart extracts; also called FLAG-CRP2; FLAG-tagged CRP2

Tests used:
[1] = molecular target: endogenous GATA6 (αMHC-CRP2 mouse heart nuclear extract) (mouse, UniProt Q61169 1-589, limits assumed); assay: co-IP from nuclear extracts of αMHC-CRP2 transgenic mouse hearts
Chain of endogenous GATA6 (αMHC-CRP2 mouse heart nuclear extract) (Q61169 whole entry): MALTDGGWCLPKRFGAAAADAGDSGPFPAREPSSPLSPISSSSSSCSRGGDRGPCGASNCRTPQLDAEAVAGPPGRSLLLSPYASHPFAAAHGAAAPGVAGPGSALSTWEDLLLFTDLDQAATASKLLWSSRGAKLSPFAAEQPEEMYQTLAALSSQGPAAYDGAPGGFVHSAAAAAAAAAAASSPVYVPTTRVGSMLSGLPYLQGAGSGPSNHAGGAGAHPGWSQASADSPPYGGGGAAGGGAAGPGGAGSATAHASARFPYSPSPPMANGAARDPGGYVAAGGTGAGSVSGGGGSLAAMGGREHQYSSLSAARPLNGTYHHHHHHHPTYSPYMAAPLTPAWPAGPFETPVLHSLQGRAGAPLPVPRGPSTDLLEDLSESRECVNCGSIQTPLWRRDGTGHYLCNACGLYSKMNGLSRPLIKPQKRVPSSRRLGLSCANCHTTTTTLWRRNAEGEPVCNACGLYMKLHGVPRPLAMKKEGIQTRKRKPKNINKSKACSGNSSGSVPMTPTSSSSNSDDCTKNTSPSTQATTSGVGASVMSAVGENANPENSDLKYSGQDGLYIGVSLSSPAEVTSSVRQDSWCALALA

[2] = molecular target: T1, endogenous SRF (αMHC-CRP2 mouse heart …); assay: as above
[3] = molecular target: B3; assay: as above
GST-SRF = molecular target: T2, GST-SRF; assay: GST-SRF pull-down of 35S-labelled in vitro translated protein
Procedure: GST (lane 2) or MBP (lane 5) protein was used as negative control. The associated proteins were visualized by autoradiography. One-fifth the amount of labeled translated proteins was loaded as positive control (lane 1, 4). […] The associated proteins were visualized by autoradiography. One-fifth the amount of labeled translated proteins was loaded as positive control (lane 1).
In vitro translation of various [³⁵S] methionine-labeled protein products were performed using rabbit reticulocyte lysates from TnT In vitro Translation kit (Promega).

[4] = molecular target: T1, endogenous SRF (αMHC-CRP2 mouse heart …); assay: co-IP from nuclear extracts of αMHC-CRP2 transgenic mouse hearts, immunoblot
Procedure: Right panels, co-immunoprecipitation were performed using ˜0.2 mg of cytoplasmic extracts (C.E.) and antibodies against FLAG-epitope, actinin or tubulin (lanes 7, 8 and 9, respectively). In lanes 4 and 10, no antibody was added in the immunoprecipitation step, serving as negative controls. In lanes 5, 6, 11 and 12, 10% of input proteins were loaded as positive controls. […] Bound proteins (lane 2-7) and 10% of input nuclear extracts (lane 1) were resolved on 4-20% SDS-PAGE gels and immunoblotted with antibodies against Brg1 (top panel) or Brm (bottom panel) of SWI/SNF remodeling complexes. […] Immune complexes were separated by 4-20% SDS-PAGE gels and immunoblotted with antibodies against V5 or Brg1.
In vivo co-immunoprecipitation (co-IP) was accomplished by enriching the starting materials in two steps. First, several whole heart were homogenized and centrifuged briefly to remove extracellular components. Cell pellet was then lysed and harvested separately for cytoplasmic and nuclear extracts.

## B1
[1]
  binding result: no binding
[2]
  binding result: no binding
[3]
  binding result: no binding

## B2
GST-SRF
  binding result: no binding

## B3
[4]
  binding result: binds
